B1: Human IL-23Rα protein (receptor)
chain: GITNINCSGHIWVEPATIFKMGMNISIYCQAAIKNCQPRKLHFYKNGIKERFQITRINKTTARLWYKNFLEPHASMYCTAECPKHFQETLICGKDISSGYPPDIPDEVTCVIYEYSGNMTCTWNAGKLTYIDTKYVVHVKSLETEEEQQYLTSSYINISTDSLQGGKKYLVWVQAANALGMEESKQLQIHLDDIVIPSAAVISRAETINATVPKTIIYWDSQTTIEKVSCEMRYKATTNQTWNVKEFDTNFTYVQQSEFYLEPNIKYVFQVRCQETGKRYWQPWSSLFFHKTPETVPQVTSKAFQHDTWNSGLTVASISTGHLTSDNRGDIG
B2: Human single-chain (sc) IL-23 (IL-12p40(23-328)-(GGGGS)x4-IL-23p19(21-189)-TEV-FLAG-8His) (ligand)
chain: IWELKKDVYVVELDWYPDAPGEMVVLTCDTPEEDGITWTLDQSSEVLGSGKTLTIQVKEFGDAGQYTCHKGGEVLSHSLLLLHKKEDGIWSTDILKDQKEPKNKTFLRCEAKNYSGRFTCWWLTTISTDLTFSVKSSRGSSDPQGVTCGAATLSAERVRGDNKEYEYSVECQEDSACPAAEESLPIEVMVDAVHKLKYENYTSSFFIRDIIKPDPPKNLQLKPLKNSRQVEVSWEYPDTWSTPHSYFSLTFCVQVQGKSKREKKDRVFTDKTSATVICRKNASISVRAQDRYYSSSWSEWASVPCSGGGGSGGGGSGGGGSGGGGSAVPGGSSPAWTQCQQLSQKLCTLAWSAHPLVGHMDLREEGDEETTNDVPHIQCGDGCDPQGLRDNSQFCLQRIHQGLIFYEKLLGSDIFTGEPSLLPDSPVGQLHASLLGLSQLLQPEGHHWETQQIPSLSPSQPWQRLLLRFKILRSLQAFVAVAARVFAHGAATLSP

How the values were obtained:
Assay in all cases: SPR
[1] = molecular target: B2
[2] = molecular target: B1
[3] = molecular target: Human IL-12Rβ1-Fc (human, UniProt P42701)

| KD with a saturating amount of tildrakizumab bound to IL-23 [1] | Kd [2] | Kd [3] | Binder |
| --- | --- | --- | --- |
| 190 nM | – | – | B1 |
| – | 0.8 nM | 19 nM | B2 |
